Target: the molecule itself
Experiment: crystal structure

B1: Drosophila melanogaster Noppera-bo (DmNobo), wild type (enzyme)
chain: MSQPKPILYYDERSPPVRSCLMLIKLLDIDVELRFVNLFKGEQFQKDFLALNPQHSVPTLVHGDLVLTDSHAILIHLAEKFDEGGSLWPQEHAERMKVLNLLLFECSFLFRRDSDFMSATVRQGFANVDVAHHERKLTEAYIIMERYLENSDFMAGPQLTLADLSIVTTLSTVNLMFPLSQFPRLRRWFTAMQQLDAYEANCSGLEKLRQTMESVGSFQFPSSSAVVTEKVE
In the case of B1, the “stoichiometry N” value is reported as 2.
